Data reported in the supplement of paper PMC11136658.

System: peptide library, one residue held at a place counted from the Y acceptor
Assay: relative phosphorylation of the sub-library (ratio to the mean residue at this position); higher = residue favoured
In short: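 Peptide library mixtures, biotinylated and centred on Tyr, each fixed one residue at one position from −5 to +5. Purified recombinant kinases were incubated with them for 90 min in 384-well plates alongside 50 μM ATP and γ-32P-ATP, and the captured, rinsed peptides on streptavidin membranes were measured by phosphorimaging and ImageQuant. Normalization divided each position's intensities by the sum of its 18 randomized residues (16 for the Ser/Thr-free library) and multiplied by that number, so that values give phosphorylation relative to the mean randomized residue.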

Chain of HCK, construct: aa230-497, human (P08631 230-497, looked up): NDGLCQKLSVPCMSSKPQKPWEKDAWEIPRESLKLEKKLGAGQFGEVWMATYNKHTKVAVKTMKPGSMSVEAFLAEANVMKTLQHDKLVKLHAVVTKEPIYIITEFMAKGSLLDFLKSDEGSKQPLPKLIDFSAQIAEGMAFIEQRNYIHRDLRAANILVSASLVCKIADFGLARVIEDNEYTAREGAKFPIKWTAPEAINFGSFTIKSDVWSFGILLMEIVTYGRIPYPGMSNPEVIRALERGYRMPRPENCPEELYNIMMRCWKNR

HCK, construct: aa230-497, human (from UniProt P08631)
relative phosphorylation
Details | at +1 | at +2 | at +3 | at +4 | at +5 | at -1 | at -2 | at -3 | at -4 | at -5
A fixed | 1.66 | 0.982 | 0.656 | 0.876 | 1.06 | 0.652 | 1.08 | 0.95 | 1.15 | 1.1
D fixed | 0.917 | 0.585 | 0.323 | 0.623 | 0.676 | 0.844 | 1.29 | 1.43 | 1.16 | 1.18
E fixed | 1.55 | 1.19 | 0.316 | 0.766 | 0.746 | 1.04 | 1.49 | 1.65 | 1.47 | 1.01
F fixed | 0.785 | 1 | 2.12 | 1.08 | 1.05 | 1.09 | 0.717 | 1.11 | 0.966 | 0.987
G fixed | 2.28 | 0.813 | 0.862 | 1.11 | 1.09 | 0.456 | 1.31 | 1.02 | 1.31 | 1.18
H fixed | 0.812 | 0.659 | 0.992 | 1.09 | 0.964 | 0.768 | 0.915 | 1.01 | 0.85 | 0.907
I fixed | 0.815 | 1.15 | 1.84 | 0.87 | 0.769 | 2.91 | 0.843 | 0.718 | 0.977 | 0.922
K fixed | 0.253 | 0.807 | 0.675 | 1.31 | 1.27 | 0.259 | 0.633 | 0.543 | 0.629 | 0.91
L fixed | 0.816 | 1.03 | 1.49 | 0.907 | 0.984 | 2.15 | 1 | 0.956 | 1.18 | 1.09
M fixed | 1.37 | 1.13 | 1.1 | 1.31 | 1.06 | 1.12 | 0.808 | 0.964 | 1.11 | 1.1
N fixed | 0.612 | 0.95 | 0.477 | 0.801 | 0.853 | 0.414 | 1.24 | 1.15 | 0.817 | 0.995
P fixed | 0.265 | 0.975 | 0.758 | 0.902 | 1.26 | 0.769 | 1.06 | 1.06 | 1.15 | 1.16
Q fixed | 0.923 | 0.888 | 0.508 | 0.99 | 0.731 | 0.521 | 1.04 | 0.867 | 0.934 | 0.99
R fixed | 0.369 | 0.993 | 1.18 | 1.49 | 1.51 | 0.228 | 0.667 | 0.58 | 0.685 | 0.772
S fixed | 1.12 | 1.17 | 0.663 | 0.972 | 1.05 | 0.489 | 1.18 | 1.02 | 0.761 | 0.942
T fixed | 0.97 | 1.42 | 0.706 | 0.924 | 0.998 | 1.35 | 1.01 | 0.961 | 0.709 | 0.845
V fixed | 1.14 | 1.17 | 1.36 | 0.872 | 0.811 | 2.24 | 0.95 | 0.807 | 0.925 | 0.912
W fixed | 1.34 | 1.08 | 1.98 | 1.11 | 1.12 | 0.698 | 0.771 | 1.2 | 1.21 | 0.99
pThr fixed | 0.949 | 1.18 | 0.296 | 0.431 | 0.421 | 2.4 | 1.22 | 1.12 | 1.05 | 1.09
pTyr fixed | 1.46 | 1.61 | 0.497 | 0.628 | 0.569 | 1.09 | 1.21 | 1.37 | 1.4 | 1.1
